# Results as given in patent US20040120943.
# Molecular target: rabbit thrombomodulin (UniProt Q8HZ48)
substance,measurement,value
variant thrombin W215A/E217A (WE),activity toward protein C on addition of thrombomodulin,the WE variant thrombin recovers almost its full activity toward protein C upon binding to thrombomodulin
